This assay has as its target T1, S-protein (UniProt P61823 47-150).
T1 construct: also called purified S-protein; commercial S-protein (Sigma Chemical)
T1 sequence (looked up): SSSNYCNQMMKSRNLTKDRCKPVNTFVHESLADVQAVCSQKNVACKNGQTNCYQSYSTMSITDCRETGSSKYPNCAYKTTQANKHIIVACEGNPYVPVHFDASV
Briefly: S-protein incubated on a glass slide with immobilized azido-S15; detected by activity assay and immunostaining. Here is the method: An amine-derivatized glass slide was treated with an excess of PEG having succinimidyl ester termini followed by diphenylphosphinomethanethiol resulting in a surface-bound phosphinothioester, as illustrated in Scheme 2. It is believed that the PEG layer (Mr) 3,400) prevented the non-specific attachment of protein to the glass surface. Serial dilutions of (N_3)Lys1 S15 and (N_3)Lys1 S15 were spotted on this phosphinothioester-derivatized slide. The peptide concentrations were 5.64 µM-56.4 pM for (N_3)Lys1 S15 and 4.38 µM-43.8 pM for (N_3)Lys1 S15. Afterwards, S-protein was spotted on the slide, which was washed with buffer. If S15 was successfully immobilized to the slide through the Staudinger ligation, the S-protein would bind to the immobilized S15 resulting in immobilized RNase S'.
Two types of assays were used to detect the presence of immobilized RNase S'. First, the ribonucleolytic activity of each spot was determined with a fluorogenic substrate. […]
RNase S' attached to the plate was visualized by immunostaining. […] RNase S' was detected by using a Fluorinate SI fluorescence scanner (Molecular Dynamics). (See FIG. 1A) The quantity of immobilized protein was determined with IMAGEQUANT densitometry software (Molecular Dynamics) and a standard curve generated by spotting various concentrations of Alexa Fluor® 488-conjugated secondary antibody.

Where no end group is shown, it is not given here. [ ]: non-standard residue; d: D form. The star is where a group is joined. Lys(N3) = [N-]=[N+]=NCCCC[C@H](N)C(=O)O; N3 = azido group, [N-]=[N+]=N*; PEG = not defined here

With [Lys(N3)]ETAAAKFERQHMDS (also called azido-S15) [(N3)Lys1 S15], the binding result was “binds”.

B1: N3-PEG-S15 (peptide)
peptide: {N3-PEG}-KETAAAKFERQHMDS
modifications: reading uncertain
notes: Synthetic S15 (first 15 residues of S-peptide) carrying N3-PEG at its N-terminus; In the assay it was immobilized on a phosphinothioester-derivatized glass slide; also called azido-S15; azido-peptide (main-chain azide)
Consider B1, for which the binding result was “binds”.
